Measured values: the Human Domainome abundance scans (Beltran et al. 2025)
± gives the uncertainty stated by the source.

B1: Tumor protein p73, residues 487 to 549; numbered along this chain, O15350 (parent)
chain: YHADPSLVSFLTGLGCPNCIEYFTSQGLQSIYHLQNLTIEDLGALKIPEQYRMTIWRGLQDLK

Variants of: B1
Assay: abundance fitness (aPCA) (normalised: wild type 0, dead -1); higher = more abundant; growth selection in yeast, the domain comes from the species named
Conditions: Homo sapiens

For YHADPSLVSFLTGLGCPNCIEYFTSQGLQSIYHLQNLTIEDLGALKIPEQYRMTIWVGLQDLK [R57V], which abundance fitness is on record?
Its abundance fitness is -0.255 ± 0.051.

For YHADPSLVSFLTGLGCPNCIEYFTSQGLQSIYHLQNLTIEDLGALKIPEQYRMTIWWGLQDLK [R57W], which abundance fitness is on record?
The abundance fitness was -0.114 ± 0.039.

With YHADPSLVSFLTGLGCPNCIEYFTSQGLQSIYHLQNLTIEDLGALKIPEQYRMTIWYGLQDLK [R57Y] as the variant, how does the abundance fitness read?
Its abundance fitness is -0.023 ± 0.056.

For YHADPSLVSFLTGLGCPNCIEYFTSQGLQSIYHLQNLTIEDLGALKIPEQYRMTIWRALQDLK [G58A], which abundance fitness is on record?
Its abundance fitness is 0.038 ± 0.045.

Which abundance fitness does the source give for YHADPSLVSFLTGLGCPNCIEYFTSQGLQSIYHLQNLTIEDLGALKIPEQYRMTIWRDLQDLK [G58D] here?
Its abundance fitness is -0.528 ± 0.086.

For YHADPSLVSFLTGLGCPNCIEYFTSQGLQSIYHLQNLTIEDLGALKIPEQYRMTIWRELQDLK [G58E], which abundance fitness is on record?
The abundance fitness was 0.014 ± 0.033.

With YHADPSLVSFLTGLGCPNCIEYFTSQGLQSIYHLQNLTIEDLGALKIPEQYRMTIWRFLQDLK [G58F] as the variant, how does the abundance fitness read?
The abundance fitness was -0.708 ± 0.17.

Which abundance fitness does the source give for YHADPSLVSFLTGLGCPNCIEYFTSQGLQSIYHLQNLTIEDLGALKIPEQYRMTIWRHLQDLK [G58H] here?
Its abundance fitness is -0.116 ± 0.11.

Which abundance fitness does the source give for YHADPSLVSFLTGLGCPNCIEYFTSQGLQSIYHLQNLTIEDLGALKIPEQYRMTIWRILQDLK [G58I] here?
Its abundance fitness is -0.68 ± 0.38.

Which abundance fitness does the source give for YHADPSLVSFLTGLGCPNCIEYFTSQGLQSIYHLQNLTIEDLGALKIPEQYRMTIWRLLQDLK [G58L] here?
The abundance fitness was -1.02 ± 0.1.

With YHADPSLVSFLTGLGCPNCIEYFTSQGLQSIYHLQNLTIEDLGALKIPEQYRMTIWRMLQDLK [G58M] as the variant, how does the abundance fitness read?
The abundance fitness was -0.896 ± 0.12.

For YHADPSLVSFLTGLGCPNCIEYFTSQGLQSIYHLQNLTIEDLGALKIPEQYRMTIWRNLQDLK [G58N], which abundance fitness is on record?
The abundance fitness was -0.36 ± 0.078.

For YHADPSLVSFLTGLGCPNCIEYFTSQGLQSIYHLQNLTIEDLGALKIPEQYRMTIWRPLQDLK [G58P], which abundance fitness is on record?
The abundance fitness was -0.433 ± 0.075.

With YHADPSLVSFLTGLGCPNCIEYFTSQGLQSIYHLQNLTIEDLGALKIPEQYRMTIWRQLQDLK [G58Q] as the variant, how does the abundance fitness read?
The abundance fitness was -0.117 ± 0.049.

Which abundance fitness does the source give for YHADPSLVSFLTGLGCPNCIEYFTSQGLQSIYHLQNLTIEDLGALKIPEQYRMTIWRRLQDLK [G58R] here?
The abundance fitness was -0.197 ± 0.046.

With YHADPSLVSFLTGLGCPNCIEYFTSQGLQSIYHLQNLTIEDLGALKIPEQYRMTIWRSLQDLK [G58S] as the variant, how does the abundance fitness read?
The abundance fitness was -0.104 ± 0.047.

With YHADPSLVSFLTGLGCPNCIEYFTSQGLQSIYHLQNLTIEDLGALKIPEQYRMTIWRTLQDLK [G58T] as the variant, how does the abundance fitness read?
The abundance fitness was -0.358 ± 0.052.

With YHADPSLVSFLTGLGCPNCIEYFTSQGLQSIYHLQNLTIEDLGALKIPEQYRMTIWRVLQDLK [G58V] as the variant, how does the abundance fitness read?
The abundance fitness was -0.846 ± 0.082.

With YHADPSLVSFLTGLGCPNCIEYFTSQGLQSIYHLQNLTIEDLGALKIPEQYRMTIWRWLQDLK [G58W] as the variant, how does the abundance fitness read?
The abundance fitness was -0.932 ± 0.12.

With YHADPSLVSFLTGLGCPNCIEYFTSQGLQSIYHLQNLTIEDLGALKIPEQYRMTIWRYLQDLK [G58Y] as the variant, how does the abundance fitness read?
The abundance fitness was -0.723 ± 0.28.

Which abundance fitness does the source give for YHADPSLVSFLTGLGCPNCIEYFTSQGLQSIYHLQNLTIEDLGALKIPEQYRMTIWRGAQDLK [L59A] here?
The abundance fitness was -0.054 ± 0.054.

For YHADPSLVSFLTGLGCPNCIEYFTSQGLQSIYHLQNLTIEDLGALKIPEQYRMTIWRGCQDLK [L59C], which abundance fitness is on record?
Its abundance fitness is -0.106 ± 0.1.

With YHADPSLVSFLTGLGCPNCIEYFTSQGLQSIYHLQNLTIEDLGALKIPEQYRMTIWRGEQDLK [L59E] as the variant, how does the abundance fitness read?
Its abundance fitness is -0.95 ± 0.16.

With YHADPSLVSFLTGLGCPNCIEYFTSQGLQSIYHLQNLTIEDLGALKIPEQYRMTIWRGFQDLK [L59F] as the variant, how does the abundance fitness read?
The abundance fitness was -0.065 ± 0.053.

With YHADPSLVSFLTGLGCPNCIEYFTSQGLQSIYHLQNLTIEDLGALKIPEQYRMTIWRGGQDLK [L59G] as the variant, how does the abundance fitness read?
The abundance fitness was -0.538 ± 0.075.

For YHADPSLVSFLTGLGCPNCIEYFTSQGLQSIYHLQNLTIEDLGALKIPEQYRMTIWRGHQDLK [L59H], which abundance fitness is on record?
Its abundance fitness is -0.801 ± 0.18.

With YHADPSLVSFLTGLGCPNCIEYFTSQGLQSIYHLQNLTIEDLGALKIPEQYRMTIWRGKQDLK [L59K] as the variant, how does the abundance fitness read?
The abundance fitness was -0.561 ± 0.11.

With YHADPSLVSFLTGLGCPNCIEYFTSQGLQSIYHLQNLTIEDLGALKIPEQYRMTIWRGMQDLK [L59M] as the variant, how does the abundance fitness read?
Its abundance fitness is -0.042 ± 0.078.

Which abundance fitness does the source give for YHADPSLVSFLTGLGCPNCIEYFTSQGLQSIYHLQNLTIEDLGALKIPEQYRMTIWRGNQDLK [L59N] here?
Its abundance fitness is -0.631 ± 0.13.

Which abundance fitness does the source give for YHADPSLVSFLTGLGCPNCIEYFTSQGLQSIYHLQNLTIEDLGALKIPEQYRMTIWRGQQDLK [L59Q] here?
The abundance fitness was -0.554 ± 0.092.

Which abundance fitness does the source give for YHADPSLVSFLTGLGCPNCIEYFTSQGLQSIYHLQNLTIEDLGALKIPEQYRMTIWRGRQDLK [L59R] here?
The abundance fitness was -0.733 ± 0.063.

Which abundance fitness does the source give for YHADPSLVSFLTGLGCPNCIEYFTSQGLQSIYHLQNLTIEDLGALKIPEQYRMTIWRGSQDLK [L59S] here?
Its abundance fitness is -0.265 ± 0.039.

For YHADPSLVSFLTGLGCPNCIEYFTSQGLQSIYHLQNLTIEDLGALKIPEQYRMTIWRGTQDLK [L59T], which abundance fitness is on record?
The abundance fitness was -0.157 ± 0.05.

Which abundance fitness does the source give for YHADPSLVSFLTGLGCPNCIEYFTSQGLQSIYHLQNLTIEDLGALKIPEQYRMTIWRGVQDLK [L59V] here?
The abundance fitness was 0.046 ± 0.056.

With YHADPSLVSFLTGLGCPNCIEYFTSQGLQSIYHLQNLTIEDLGALKIPEQYRMTIWRGWQDLK [L59W] as the variant, how does the abundance fitness read?
Its abundance fitness is -0.213 ± 0.05.

With YHADPSLVSFLTGLGCPNCIEYFTSQGLQSIYHLQNLTIEDLGALKIPEQYRMTIWRGYQDLK [L59Y] as the variant, how does the abundance fitness read?
Its abundance fitness is -0.097 ± 0.12.

For YHADPSLVSFLTGLGCPNCIEYFTSQGLQSIYHLQNLTIEDLGALKIPEQYRMTIWRGLADLK [Q60A], which abundance fitness is on record?
The abundance fitness was 0.047 ± 0.027.

With YHADPSLVSFLTGLGCPNCIEYFTSQGLQSIYHLQNLTIEDLGALKIPEQYRMTIWRGLCDLK [Q60C] as the variant, how does the abundance fitness read?
The abundance fitness was -0.102 ± 0.075.

With YHADPSLVSFLTGLGCPNCIEYFTSQGLQSIYHLQNLTIEDLGALKIPEQYRMTIWRGLDDLK [Q60D] as the variant, how does the abundance fitness read?
Its abundance fitness is -0.01 ± 0.058.

With YHADPSLVSFLTGLGCPNCIEYFTSQGLQSIYHLQNLTIEDLGALKIPEQYRMTIWRGLEDLK [Q60E] as the variant, how does the abundance fitness read?
The abundance fitness was 0.101 ± 0.044.

For YHADPSLVSFLTGLGCPNCIEYFTSQGLQSIYHLQNLTIEDLGALKIPEQYRMTIWRGLFDLK [Q60F], which abundance fitness is on record?
Its abundance fitness is -0.096 ± 0.071.

For YHADPSLVSFLTGLGCPNCIEYFTSQGLQSIYHLQNLTIEDLGALKIPEQYRMTIWRGLGDLK [Q60G], which abundance fitness is on record?
The abundance fitness was -0.027 ± 0.03.
